Test results from patent publication US20210087281A1 (AGOMAB THERAPEUTICS, published 2021).
Each block holds one binder with its values, some of them ahead of it.

Legend:
[1] = molecular target: T1, native mouse MET on living cells (mouse, UniProt P16056 25-1379); experiment: cell-based or functional assay
[2] = molecular target: T2, native human MET on living cells (human, UniProt P08581 25-1390); experiment: cell-based or functional assay
[3] = molecular target: T3, human MET-Fc (R&D Systems) (human, UniProt P08581 25-932); experiment: competition ELISA, hMET-Fc in solid phase, competitor 0.3 nM biotinylated hHGF
T3 construct: extracellular domain; bought chimeric protein; also called hMET; not shown: Fc portion of human IgG1
Method: (§1) To investigate along this line, we tested the competition between mAbs and HGF by ELISA. Recombinant human and mouse HGF (R&D Systems) were biotinylated at the N-terminus using NHS-LC-biotin (Thermo Scientific). MET-Fc protein, either human or mouse (R&D Systems), was immobilized in solid phase and then exposed to 0.3 nM biotinylated HGF, either human or mouse, in the presence of increasing concentrations of antibodies (0-120 nM).
(§2) A MET-Fc chimeric protein (either human or mouse) was immobilized in solid phase and exposed to a fixed concentration of biotinylated HGF (either human or mouse), in the presence of increasing concentrations of antibodies. […] Antibody-HGF competition is expressed as IC₅₀ (the concentration that achieves 50% competition) and IMAX (the maximum % competition reached at saturation).

human MET ECD = molecular target: T4, human MET ECD (human, UniProt P08581 25-932); experiment: ELISA, MET ECD in solid phase, mAb 0-20 nM
T4 construct: range 1-932; recombinant ECD made by the applicants; the stated range begins at residue 1, so it includes the signal peptide of the entry; also called hMET; hMET ECD
Method: (§3) Production (by transient transfection of mammalian cells) and purification (by protein A affinity chromatography) of the resulting chimeric llama-human IgG1 molecules was outsourced to U-protein Express. Binding of chimeric mAbs to MET was determined by ELISA using hMET or mMET ECD in solid phase and increasing concentrations of antibodies (0-20 nM) in solution. […] Binding capacity (EMAX) varied from antibody to antibody, possibly due to partial epitope exposure in the immobilized antigen, but was similar in the human and mouse setting.

mouse MET ECD = molecular target: T5, mouse MET ECD (mouse, UniProt P16056 25-931); experiment: ELISA, MET ECD in solid phase, mAb 0-20 nM
T5 construct: range 1-931; recombinant ECD made by the applicants; the stated range begins at residue 1; also called mMET; mMET ECD
Method: as §3

[4] = molecular target: T1, native mouse MET on living cells; experiment: flow cytometry, MLP29 cells
Method: (§4) We also analysed whether chimeric anti-MET antibodies bound to native human and mouse MET in living cells. […] Antibody binding to cells was analysed by flow cytometry using phycoerythrin-conjugated anti-human IgG1 antibodies (eBioscience) and a CyAn ADP analyser (Beckman Coulter). As a positive control for human MET binding, we used a commercial mouse anti-human MET antibody (R&D Systems) and phycoerythrin-conjugated anti-mouse IgG1 antibodies (eBioscience).
(§5) As a positive control for mouse MET binding we used a commercial goat anti-mouse MET antibody (R&D Systems) and phycoerythrin-conjugated anti-goat IgG1 antibodies (eBioscience). […] Consistent with the data obtained in ELISA, maximal binding (EMAX) varied depending on antibody, but was similar in human and mouse cells.

[5] = molecular target: T6, mouse MET-Fc (R&D Systems) (mouse, UniProt P16056 25-929, limits assumed); experiment: competition ELISA, mMET-Fc in solid phase, competitor 0.3 nM biotinylated mHGF
T6 construct: bought chimeric protein; also called mMET; not shown: Fc part
Method: as §1, §2

[6] = molecular target: T1, native mouse MET on living cells; experiment: cell-based or functional assay; remark: listed apart in the source
[7] = molecular target: T2, native human MET on living cells; experiment: cell-based or functional assay; remark: listed apart in the source
[8] = molecular target: T1, native mouse MET on living cells; experiment: cell-based or functional assay; remark: listed apart in the source
[9] = molecular target: T2, native human MET on living cells; experiment: cell-based or functional assay; remark: listed apart in the source
[10] = molecular target: T1, native mouse MET on living cells; experiment: cell-based or functional assay; remark: listed apart in the source
[11] = molecular target: T2, native human MET on living cells; experiment: cell-based or functional assay; remark: listed apart in the source
[12] = molecular target: T2, native human MET on living cells; experiment: flow cytometry, A549 cells
Method: as §4, §5

T2 sequence (P08581 25-1390): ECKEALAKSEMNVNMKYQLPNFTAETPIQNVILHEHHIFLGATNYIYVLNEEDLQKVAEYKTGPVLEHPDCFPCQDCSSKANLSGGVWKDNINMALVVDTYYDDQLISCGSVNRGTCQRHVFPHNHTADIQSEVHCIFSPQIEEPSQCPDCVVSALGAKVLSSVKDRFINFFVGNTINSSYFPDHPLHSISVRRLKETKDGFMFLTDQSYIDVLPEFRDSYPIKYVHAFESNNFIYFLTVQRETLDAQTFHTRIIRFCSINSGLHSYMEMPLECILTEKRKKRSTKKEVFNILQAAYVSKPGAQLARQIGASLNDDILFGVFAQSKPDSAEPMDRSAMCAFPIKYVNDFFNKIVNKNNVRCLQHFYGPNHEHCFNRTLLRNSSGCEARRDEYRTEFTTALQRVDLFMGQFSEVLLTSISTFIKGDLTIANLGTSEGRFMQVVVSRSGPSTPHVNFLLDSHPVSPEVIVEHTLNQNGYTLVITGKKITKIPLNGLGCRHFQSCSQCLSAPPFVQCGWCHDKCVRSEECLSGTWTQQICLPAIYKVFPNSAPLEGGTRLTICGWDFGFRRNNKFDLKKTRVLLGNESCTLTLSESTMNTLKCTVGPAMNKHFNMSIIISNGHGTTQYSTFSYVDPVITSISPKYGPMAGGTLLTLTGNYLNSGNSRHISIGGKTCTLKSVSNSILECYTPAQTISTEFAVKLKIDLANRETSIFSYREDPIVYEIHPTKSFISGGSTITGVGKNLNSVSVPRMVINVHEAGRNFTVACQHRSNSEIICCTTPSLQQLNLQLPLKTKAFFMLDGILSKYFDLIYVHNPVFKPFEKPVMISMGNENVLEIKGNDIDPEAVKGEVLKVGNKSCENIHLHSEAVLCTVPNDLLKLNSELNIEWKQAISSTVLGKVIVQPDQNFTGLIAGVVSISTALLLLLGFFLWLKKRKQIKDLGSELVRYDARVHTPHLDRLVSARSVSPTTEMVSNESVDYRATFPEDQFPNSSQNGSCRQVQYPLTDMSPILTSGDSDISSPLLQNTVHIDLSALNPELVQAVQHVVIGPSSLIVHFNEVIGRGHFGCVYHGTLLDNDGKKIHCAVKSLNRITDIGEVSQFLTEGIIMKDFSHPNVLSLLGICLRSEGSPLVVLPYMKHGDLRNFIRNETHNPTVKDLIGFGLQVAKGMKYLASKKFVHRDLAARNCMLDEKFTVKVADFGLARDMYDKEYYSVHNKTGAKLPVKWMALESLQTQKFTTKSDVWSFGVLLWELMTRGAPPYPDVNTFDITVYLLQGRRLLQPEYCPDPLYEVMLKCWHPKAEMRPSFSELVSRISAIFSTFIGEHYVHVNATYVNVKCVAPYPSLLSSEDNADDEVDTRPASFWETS
T3 sequence (P08581 25-932): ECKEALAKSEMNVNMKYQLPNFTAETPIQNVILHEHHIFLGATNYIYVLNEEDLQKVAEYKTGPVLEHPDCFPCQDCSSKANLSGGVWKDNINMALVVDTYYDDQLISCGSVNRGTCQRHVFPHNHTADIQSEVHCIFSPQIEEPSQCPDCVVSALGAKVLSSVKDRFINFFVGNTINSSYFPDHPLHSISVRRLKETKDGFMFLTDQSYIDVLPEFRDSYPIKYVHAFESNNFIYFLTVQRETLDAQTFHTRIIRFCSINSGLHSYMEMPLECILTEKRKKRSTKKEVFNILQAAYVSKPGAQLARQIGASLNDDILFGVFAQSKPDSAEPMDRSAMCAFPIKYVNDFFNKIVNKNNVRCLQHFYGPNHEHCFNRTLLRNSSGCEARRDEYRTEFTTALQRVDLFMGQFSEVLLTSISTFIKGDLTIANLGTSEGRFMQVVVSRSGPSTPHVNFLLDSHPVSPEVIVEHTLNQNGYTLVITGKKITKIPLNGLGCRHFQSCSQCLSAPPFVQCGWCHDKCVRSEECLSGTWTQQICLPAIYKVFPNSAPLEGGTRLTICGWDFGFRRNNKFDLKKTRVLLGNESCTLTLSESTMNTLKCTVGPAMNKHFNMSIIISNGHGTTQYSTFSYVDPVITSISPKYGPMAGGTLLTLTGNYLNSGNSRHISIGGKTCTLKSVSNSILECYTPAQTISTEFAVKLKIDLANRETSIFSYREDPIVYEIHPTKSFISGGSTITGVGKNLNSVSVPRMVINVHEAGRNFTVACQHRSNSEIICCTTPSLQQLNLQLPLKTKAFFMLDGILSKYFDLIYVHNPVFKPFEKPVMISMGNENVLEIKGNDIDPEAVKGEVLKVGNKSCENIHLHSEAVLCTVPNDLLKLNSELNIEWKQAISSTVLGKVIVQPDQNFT
T4 sequence (P08581 25-932 limits assumed, form in doubt): as the sequence (P08581 25-932) above

branches per spheroid, MLP29 cells, 0.5 nM [1]: 14.7 branches
branches per spheroid, MLP29 cells, 2.5 nM [1]: 18.7 branches
branches per spheroid, MLP29 cells, 12.5 nM [1]: 24.7 branches
branches per spheroid, LOC cells, 0.5 nM [2]: 6.7 branches
branches per spheroid, LOC cells, 2.5 nM [2]: 13.3 branches
branches per spheroid, LOC cells, 12.5 nM [2]: 16.3 branches
IC50 [3]: 1.47 nM
IMAX [3]: 69.4%
EC50 (human MET ECD): 0.128 nM
EMAX (OD450) (human MET ECD): 2.62 AU
EC50 (mouse MET ECD): 0.103 nM
EMAX (OD450) (mouse MET ECD): 2.78 AU
EC50 [4]: 2.37 nM
EMAX [4]: 115 % relative to control
IC50 [5]: 1.56 nM
IMAX [5]: 62.5%
phospho-MET ELISA EC50, MLP29 cells [6]: 1.19 nM
phospho-MET ELISA EMAX (% HGF activity), MLP29 cells [6]: 71.5%
phospho-MET ELISA EC50, A549 cells [7]: 1.86 nM
phospho-MET ELISA EMAX (% HGF activity), A549 cells [7]: 62.3%
scatter score 0-4, MLP29, 0.001 nM [10]: 0 score
scatter score 0-4, MLP29, 0.004 nM [10]: 0 score
scatter score 0-4, MLP29, 0.012 nM [10]: 0 score
scatter score 0-4, MLP29, 0.037 nM [10]: 0 score
scatter score 0-4, MLP29, 0.111 nM [10]: 0 score
scatter score 0-4, MLP29, 0.333 nM [10]: 0 score
scatter score 0-4, MLP29, 1.000 nM [10]: 1 score
scatter score 0-4, MLP29, 3.000 nM [10]: 2 score
scatter score 0-4, MLP29, 9.000 nM [10]: 3 score
scatter score 0-4, HPAF-II, 0.001 nM [11]: 0 score
scatter score 0-4, HPAF-II, 0.004 nM [11]: 0 score
scatter score 0-4, HPAF-II, 0.012 nM [11]: 0 score
scatter score 0-4, HPAF-II, 0.037 nM [11]: 0 score
scatter score 0-4, HPAF-II, 0.111 nM [11]: 0 score
scatter score 0-4, HPAF-II, 0.333 nM [11]: 0 score
scatter score 0-4, HPAF-II, 1.000 nM [11]: 1 score
scatter score 0-4, HPAF-II, 3.000 nM [11]: 2 score
scatter score 0-4, HPAF-II, 9.000 nM [11]: 3 score
EC50 [12]: 2.3 nM
EMAX [12]: 121 % relative to control
B1: 76G7 chimeric llama-human IgG1 mAb (antibody, V domains shown)
VH: QVQLVESGGNLVQPGGSLRLSCAASGFTFSNYYMSWVRQAPGKGLEWVSDIYSDGSTTWYSDSVKGRFTISRDNAKNTLSLQMNSLKSEDTAVYYCARVKIYPGGYDAWGQGTQVTVSS
VL: QAGLTQPPSVSGSPGKTVTISCAGNSSDVGYGNYVSWYQQFPGMAPKLLIYLVNKRASGITDRFSGSKSGNTASLTISGLQSEDEADYYCASYTGSNNIVFGGGTHLTVL
notes: llama VH on human IgG1 CH1-CH2-CH3, llama VL on human lambda CL
protection from staurosporine, viability EC50, MLP29 cells [8]: 30.1 nM
protection from staurosporine, viability EMAX, MLP29 cells [8]: 50.2%
protection from staurosporine, viability EC50, MCF10A cells [9]: 25.4 nM
protection from staurosporine, viability EMAX, MCF10A cells [9]: 51.9%

branches per spheroid, MLP29 cells, 0.5 nM [1]: 32.3 branches
branches per spheroid, MLP29 cells, 2.5 nM [1]: 43.7 branches
branches per spheroid, MLP29 cells, 12.5 nM [1]: 36 branches
phospho-MET ELISA EC50, MLP29 cells [6]: 0.23 nM
phospho-MET ELISA EMAX (% HGF activity), MLP29 cells [6]: 100%
scatter score 0-4, MLP29, 0.001 nM [10]: 0 score
scatter score 0-4, MLP29, 0.004 nM [10]: 1 score
scatter score 0-4, MLP29, 0.012 nM [10]: 2 score
scatter score 0-4, MLP29, 0.037 nM [10]: 3 score
scatter score 0-4, MLP29, 0.111 nM [10]: 4 score
scatter score 0-4, MLP29, 0.333 nM [10]: 4 score
scatter score 0-4, MLP29, 1.000 nM [10]: 4 score
scatter score 0-4, MLP29, 3.000 nM [10]: 4 score
scatter score 0-4, MLP29, 9.000 nM [10]: 4 score
B2: recombinant mouse HGF (R&D Systems) (ligand, UniProt Q08048 33-728, looked up)
chain: QKKRRNTLHEFKKSAKTTLTKEDPLLKIKTKKVNSADECANRCIRNRGFTFTCKAFVFDKSRKRCYWYPFNSMSSGVKKGFGHEFDLYENKDYIRNCIIGKGGSYKGTVSITKSGIKCQPWNSMIPHEHSFLPSSYRGKDLQENYCRNPRGEEGGPWCFTSNPEVRYEVCDIPQCSEVECMTCNGESYRGPMDHTESGKTCQRWDQQTPHRHKFLPERYPDKGFDDNYCRNPDGKPRPWCYTLDPDTPWEYCAIKTCAHSAVNETDVPMETTECIQGQGEGYRGTSNTIWNGIPCQRWDSQYPHKHDITPENFKCKDLRENYCRNPDGAESPWCFTTDPNIRVGYCSQIPKCDVSSGQDCYRGNGKNYMGNLSKTRSGLTCSMWDKNMEDLHRHIFWEPDASKLNKNYCRNPDDDAHGPWCYTGNPLIPWDYCPISRCEGDTTPTIVNLDHPVISCAKTKQLRVVNGIPTQTTVGWMVSLKYRNKHICGGSLIKESWVLTARQCFPARNKDLKDYEAWLGIHDVHERGEEKRKQILNISQLVYGPEGSDLVLLKLARPAILDNFVSTIDLPSYGCTIPEKTTCSIYGWGYTGLINADGLLRVAHLYIMGNEKCSQHHQGKVTLNESELCAGAEKIGSGPCEGDYGGPLICEQHKMRMVLGVIVPGRGCAIPNRPGIFVRVAYYAKWIHKVILTYKL
modifications: biotinylated at the N-terminus using NHS-LC-biotin (in the competition ELISAs only)
protection from staurosporine, viability EC50, MLP29 cells [8]: 5.35 nM
protection from staurosporine, viability EMAX, MLP29 cells [8]: 58.6%

branches per spheroid, MLP29 cells, 0.5 nM [1]: 14 branches
branches per spheroid, MLP29 cells, 2.5 nM [1]: 14.7 branches
branches per spheroid, MLP29 cells, 12.5 nM [1]: 22.7 branches
branches per spheroid, LOC cells, 0.5 nM [2]: 7 branches
branches per spheroid, LOC cells, 2.5 nM [2]: 15.3 branches
branches per spheroid, LOC cells, 12.5 nM [2]: 16 branches
IC50 [3]: 3.87 nM
IMAX [3]: 51.4%
EC50 (human MET ECD): 0.106 nM
EMAX (OD450) (human MET ECD): 3.08 AU
EC50 (mouse MET ECD): 0.127 nM
EMAX (OD450) (mouse MET ECD): 2.97 AU
EC50 [4]: 2.54 nM
EMAX [4]: 121 % relative to control
IC50 [5]: 4.05 nM
IMAX [5]: 50.7%
phospho-MET ELISA EC50, MLP29 cells [6]: 2.01 nM
phospho-MET ELISA EMAX (% HGF activity), MLP29 cells [6]: 75.4%
phospho-MET ELISA EC50, A549 cells [7]: 2.48 nM
phospho-MET ELISA EMAX (% HGF activity), A549 cells [7]: 70.6%
scatter score 0-4, MLP29, 0.001 nM [10]: 0 score
scatter score 0-4, MLP29, 0.004 nM [10]: 0 score
scatter score 0-4, MLP29, 0.012 nM [10]: 0 score
scatter score 0-4, MLP29, 0.037 nM [10]: 0 score
scatter score 0-4, MLP29, 0.111 nM [10]: 0 score
scatter score 0-4, MLP29, 0.333 nM [10]: 1 score
scatter score 0-4, MLP29, 1.000 nM [10]: 2 score
scatter score 0-4, MLP29, 3.000 nM [10]: 2 score
scatter score 0-4, MLP29, 9.000 nM [10]: 3 score
scatter score 0-4, HPAF-II, 0.001 nM [11]: 0 score
scatter score 0-4, HPAF-II, 0.004 nM [11]: 0 score
scatter score 0-4, HPAF-II, 0.012 nM [11]: 0 score
scatter score 0-4, HPAF-II, 0.037 nM [11]: 0 score
scatter score 0-4, HPAF-II, 0.111 nM [11]: 0 score
scatter score 0-4, HPAF-II, 0.333 nM [11]: 1 score
scatter score 0-4, HPAF-II, 1.000 nM [11]: 2 score
scatter score 0-4, HPAF-II, 3.000 nM [11]: 2 score
scatter score 0-4, HPAF-II, 9.000 nM [11]: 3 score
EC50 [12]: 2.29 nM
EMAX [12]: 110 % relative to control
B3: 71G12 chimeric llama-human IgG1 mAb (antibody, V domains shown)
VH: QVQLQESGGDLVQPGGSLRVSCVVSGFTFSRYYMSWVRQAPGKGLEWVSSIDSYGYSTYYTDSVKGRFTISRDNAKNTLYLQMNSLKPEDTALYYCARAKTTWSYDYWGQGTQVTVSS
VL: EIVLTQSPSSVTASVGGKVTINCKSSQSVFIASNQKTYLNWYQQRPGQSPRLVISYASTRESGIPDRFSGSGSTTDFTLTISSVQPEDAAVYYCQQAYSHPTFGQGTKVELK
notes: llama VH on human IgG1 CH1-CH2-CH3, llama VL on human kappa CL
protection from staurosporine, viability EC50, MLP29 cells [8]: > 32 nM
protection from staurosporine, viability EMAX, MLP29 cells [8]: 39.7%
protection from staurosporine, viability EC50, MCF10A cells [9]: > 32 nM
protection from staurosporine, viability EMAX, MCF10A cells [9]: 39.4%
